Literature values, collected in patent US11419921B2, “Methods of treating neurological disorders” (EnClear Therapies, Inc., priority 2018, dated 2022).

Details: 1 TAME unit = 1 μmole TAME hydrolyzed/min at pH 8.2, 25° C.; cited from earlier work

B1: TPCK-trypsin: TPCK-trypsin; ThermoFisher Cat #20233 (protein, UniProt P00760 24-246, looked up)
Serine protease 1: IVGGYTCGANTVPYQVSLNSGYHFCGGSLINSQWVVSAAHCYKSGIQVRLGEDNINVVEGNEQFISASKSIVHPSYNSNTLNNDIMLIKLKSAASLNSRVASISLPTSCASAGTQCLISGWGNTKSSGTSYPDVLKCLKAPILSDSSCKSAYPGQITSNMFCAGYLEGGKDSCQGDSGGPVVCSGKLQGIVSWGSGCAQKNKPGVYTKVCNYVSWIKQTIASN
modifications: TPCK-treated
In the case of B1, the Activity is given as 308 TAME units/mg of protein.
